Measurements: US20230348578A1, “CONFORMATION-SPECIFIC ANTIBODIES THAT BIND TAU PROTEIN AND USES THEREOF” (Beth Israel Deaconess Medical Center, Inc., priority 2020, published 2023)
Numbering of substitutions follows the chain as printed.

B1: HT3: humanized cis-pThr231-tau mAb; heavy chain variable domain SEQ ID NO: 27, light chain variable domain SEQ ID NO: 16 (antibody, V domains shown)
VH: QVQLVQSGAEVKKPGASVKVSCKASGYTFTSYWIHWVRQRPGQGLEWIGVIDPSDSYTRYNQKFKGRVTLTVDTSASTAYMELSSLRSEDTAVYYCTTWEVDYWGQGTLVTVSS
VL: DVVMTQSPLSLPVTLGQPASISCRSSQSLVHSDGNTYLHWYLQKPGQSPQLLIYKVSNRFSGVPDRFSGSGSGTDFTLKISRVEAEDVGVYFCSQSTHVPWTFGGGTKVEIK
B2: HT16: humanized cis-pThr231-tau mAb; heavy chain variable domain SEQ ID NO: 27, light chain variable domain SEQ ID NO: 17 (antibody, V domains shown)
VH: B1 VH
VL: B1 VL with H39N
B3: HT1: humanized cis-pThr231-tau mAb; heavy chain variable domain SEQ ID NO: 25, light chain variable domain SEQ ID NO: 16 (antibody, V domains shown)
VH: B1 VH with V11L, V20M, R38K, V68A, E82Q, R87T, T91S, L109T
VL: B1 VL
B4: HT17: humanized cis-pThr231-tau mAb; heavy chain variable domain SEQ ID NO: 28, light chain variable domain SEQ ID NO: 17 (antibody, V domains shown)
VH: B1 VH with L70I, V72R
VL: B1 VL with H39N
B5: HT13: mouse-human chimera control antibody; heavy chain variable domain SEQ ID NO: 24, light chain variable domain SEQ ID NO: 15 (antibody, V domains shown)
VH: QVQLQQPGAELVKPGASVKMSCKASGYTFTSYWIHWVKQRPGQGLEWIGVIDPSDSYTRYNQKFKGKATLTVDTSSSTAYMQLSSLTSEDSAVYYCTTWEVDYWGQGTTLTVSS
VL: B1 VL with S7T, T14S, Q17D, P18Q, Q50K, V83L, V88L, V109L
B6: HT8: humanized cis-pThr231-tau mAb; heavy chain variable domain SEQ ID NO: 28, light chain variable domain SEQ ID NO: 18 (antibody, V domains shown)
VH: B1 VH with L70I, V72R
VL: B1 VL with F60D
B7: HT12: humanized cis-pThr231-tau mAb; heavy chain variable domain SEQ ID NO: 28, light chain variable domain SEQ ID NO: 19 (antibody, V domains shown)
VH: B1 VH with L70I, V72R
VL: B1 VL with F92Y
B8: HT15: humanized cis-pThr231-tau mAb; heavy chain variable domain SEQ ID NO: 26, light chain variable domain SEQ ID NO: 17 (antibody, V domains shown)
VH: B1 VH with V20M, R38K, V68A
VL: B1 VL with H39N
B9: HT2: humanized cis-pThr231-tau mAb; heavy chain variable domain SEQ ID NO: 26, light chain variable domain SEQ ID NO: 16 (antibody, V domains shown)
VH: B1 VH with V20M, R38K, V68A
VL: B1 VL
B10: HT14: humanized cis-pThr231-tau mAb; heavy chain variable domain SEQ ID NO: 25, light chain variable domain SEQ ID NO: 17 (antibody, V domains shown)
VH: B5 VH with Q5V, P7S, V12K, K67R, S76A, L110V
VL: B1 VL with H39N
B11: C113: previously described murine cis-pTau monoclonal antibody (U.S. Pat. No. 9,688,747); SEQ ID NO: 24 and 15; positive control (antibody, V domains shown)
VH: B5 VH
VL: B1 VL with S7T, T14S, Q17D, P18Q, Q50K, V83L, V88L, V109L
notes: previously described murine cis-pTau monoclonal antibody (U.S. Pat. No. 9,688,747); positive control

Target: cis pT231-tau (P-tau peptide, pure cis or cis-locked)
Experiment: Biacore assay of binding affinity of humanized cis mAb variants
Conditions: not given
Description: We next started to characterize and select lead humanized mAbs. We expressed and purified humanized mAb variants using a CHO expression system. We transfected over 45 plasmid DNA pairs of heavy and light chain cDNAs into CHO cells to express over 225 humanized cis mAb variants in various combinations. To evaluate the target binding specificity and affinity of our mouse mAbs, we established a simple and quantitative ELISA to screen the clones using a wild-type P-tau peptide and its pure cis or cis-locked, and pure trans counterparts and determined the binding affinity for selected clones using Biacore assays. We screened over 200 humanized cis mAb variants. […] Furthermore, one-tenth of humanized cis mAb variants were also able to recognize cis P-tau in human AD and TBI brains based on immunostaining analysis.
(§1) The binding affinity of selected humanized antibody clones was determined by Biacore assay using a wild-type P-tau peptide and its pure cis or cis-locked, and pure trans counterparts. The […] of the selected humanized cis mAb variants was determined by assessing their ability to eliminate cis P-tau in stressed neurons in cell cultures. Functional restoration of selected clones was determined by their ability to restore risk-taking behavior after 3-hit or 7-hit repetitive TBI in mice, as assayed by elevated plus maze.

Kd	Molecule
3.51 nM	B1
3.26 nM	B2
1.83 nM	B3
4940 nM	B4
1.26 nM	B5
7.68 nM	B6
3.55 nM	B7
33.4 nM	B8
1.62 nM	B9
30.2 nM	B10

Test system: mice (C57/BL6) after 3-hit repetitive TBI
Experiment: 3-hit repetitive mild TBI in mice, elevated plus maze
Format: in vivo
Conditions: risk-taking behavior, HT13 chimera control = 1.0
Procedure: as §1
(§2) An initial sign of brain dysfunction following traumatic brain injury (TBI) is an increase in risk-taking behavior. To determine the therapeutic effect of the herein described cis pT231-tau monoclonal antibodies in restoring brain function 11-week old mice (C57/BL6) mice were subjected to elevated plus maze behavioral assays designed to evaluate risk-taking behavior following repetitive mild TBIs. The behavioral assays were performed as previously described in Walf, Nature Protocols 2(2): 322-328, 2007 (FIG. 7). […] All other mice sustained mild TBI (rmTB) either three times, once a day for three consecutive days, or seven times once a day for five consecutive days and two consecutive times on days 8 and 9. In the 3-hit TBI experiment (FIG. 8A), nine groups of mice received three doses (250 ug/mouse) via intraperitoneal injection of either IgG control (n=10 mice) or one of the following humanized cis pT231-tau monoclonal antibody variants C113 (n=5 mice), HT1 (n=10 mice), HT2 (n=10), HT3 (n=10), HT8 (n=5), HT10 (n=10), HT13 (n=15), HT18 (n=4). Treatment with IgG or humanized cis-pT231-tau monoclonal antibody was administered on Days 1, 2 and 7. Behavioral evaluation was performed on Day 13. In the 7-hit TBI experiment (FIG. 8B), one group sustained TBI only (n=10 mice). The other groups received 8 doses (250 ug/mouse) via intraperitoneal injection of either IgG control (n=10 mice) or one of the following humanized cis pT231-tau monoclonal antibody variants C113 (n=10 mice), HT2 (n=10), HT3 (n=10), HT8 (n=10), HT10 (n=10), HT13 (n=10), HT18/HC2 (n=10). Treatment with IgG or humanized cis-pT231-tau monoclonal antibody was administered on Days 1, 2, 3, 5, 8, 10, 13 and 20. Behavioral evaluation was performed on Day 27. The elevated plus maze was used to assess anxiety/risk-taking behavior and carried out as described in Kondo et al, Nature 523, 431-436, 2015. Briefly, the elevated plus maze consists of two white open arms (30×5 cm) and two white closed arms of the same size with 15-cm-high walls, extended out opposite from each other from a central platform (decision zone) to create a plus shape. The entire apparatus is raised 38 cm above the floor (Lafayette Instruments). Mice are placed on the center platform of the maze, facing a closed arm, and allowed to explore the apparatus for 5 min. The maze is cleaned between subjects with a weak ethanol solution and dried. A computer-assisted video tracking system (Noldus Ethovision) recorded the total time spent in the center platform (decision zone), and the two closed or ‘safe’ arms and the two open or ‘aversive’ arms. Mice with lower levels of anxiety/risk-taking behavior spend less time in the open arms.

Molecule	Functional restoration 3-hit TBI
B1	1.7
B3	1.5
B9	1.4

Test system: mice (C57/BL6) after 7-hit repetitive TBI
Experiment: 7-hit repetitive mild TBI in mice, elevated plus maze
Format: in vivo
Conditions: risk-taking behavior, HT13 chimera control = 1.0
Procedure: as §1, §2

Molecule	Functional restoration 7-hit TBI
B1	2.0
B6	1.4
B9	1.7

Target: T1, cis P-tau (Homo sapiens, UniProt P10636)
T1 sequence (P10636 1-441 isoform P10636-8): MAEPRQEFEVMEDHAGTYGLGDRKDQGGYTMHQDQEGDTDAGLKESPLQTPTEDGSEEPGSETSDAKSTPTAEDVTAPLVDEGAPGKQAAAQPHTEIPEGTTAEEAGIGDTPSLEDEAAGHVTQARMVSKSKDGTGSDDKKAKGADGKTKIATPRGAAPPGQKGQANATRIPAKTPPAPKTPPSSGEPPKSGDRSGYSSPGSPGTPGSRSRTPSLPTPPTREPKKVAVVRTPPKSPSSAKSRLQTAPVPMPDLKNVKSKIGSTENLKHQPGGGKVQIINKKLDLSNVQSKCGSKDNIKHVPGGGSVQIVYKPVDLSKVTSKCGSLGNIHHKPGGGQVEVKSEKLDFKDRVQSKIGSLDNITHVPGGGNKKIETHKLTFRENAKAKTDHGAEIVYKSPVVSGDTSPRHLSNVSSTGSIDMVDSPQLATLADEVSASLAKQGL
Experiment: Elimination of cis P-tau in cultured neurons stressed by hypoxia
Format: cell-based
Parameters: endogenous in cells
Conditions: 2.5 μg/ml, 5 μg/ml and 10 μg/ml
Procedure: as §1
Cultured neurons were subjected to neuron stress by hypoxia in the presence or absence of different concentration of humanized antibody variants, followed by immunoblotting analysis to analyze cis P-tau levels in the stressed neurons, the results of which are provided in FIGS. 2-4. FIG. 2 is an immunostaining image showing the ability of humanized cis pT231-tau monoclonal antibody variants to eliminate cis P-tau in neurons under hypoxic conditions. Cis P-tau levels are reported in red and blue reports nuclear staining (Hoechst) to represent all neurons in the experiment. […] Cis P-tau levels are reported in red and blue reports nuclear staining (Hoechst) to represent all neurons in the experiment. […] IgG is a negative control. The cis-pTau monoclonal antibody C113 serves as a positive control.

elimination of cis P-tau in neurons under hypoxic conditions (images)	rank in cis P-tau elimination assay (FIG. 4)	Molecule
elimination of cis P-tau		B11
elimination of cis P-tau		B1
elimination of cis P-tau		B3
elimination of cis P-tau		B5
elimination of cis P-tau	top four performing variants	B6
elimination of cis P-tau	top four performing variants	B9

Target: T1, cis P-tau
Experiment: Immunoblotting of CSF of live TBI patients
Format: binding
Parameters: The recognition of cis P-tau in the CSF of live TBI patients; from tissue; host or cells: cerebrospinal fluid of live traumatic brain injury patients
Conditions: relative to control CSF samples
Description: CSF pT231-tau is an early biomarker of traumatic brain injury (TBI). The recognition of cis P-tau in the CSF of live TBI patients by the humanized cis pT231-tau monoclonal antibody variants evaluated immunoblotting analyses using different humanized antibody variants.

Molecule	detection of cis P-tau in CSF of live TBI patients
B6	robust detection of cis P-tau as early as three days after TBI
